The labels stand for the following.
T1: biotinylated extracellular domains of human CD123 with C-terminal Fc tag and Avi tag (bio.hCD123-Fc(kih)-Avi) (human, UniProt P26951 19-303, biotinylated with BirA-GST (Avi tag))
T1 construct: Bought from Evitria; the second Fc chain and the number of CD123 arms are not described; also called biotinylated hCD123; recombinant human CD123 target; not shown: Avi tag
T1 sequence: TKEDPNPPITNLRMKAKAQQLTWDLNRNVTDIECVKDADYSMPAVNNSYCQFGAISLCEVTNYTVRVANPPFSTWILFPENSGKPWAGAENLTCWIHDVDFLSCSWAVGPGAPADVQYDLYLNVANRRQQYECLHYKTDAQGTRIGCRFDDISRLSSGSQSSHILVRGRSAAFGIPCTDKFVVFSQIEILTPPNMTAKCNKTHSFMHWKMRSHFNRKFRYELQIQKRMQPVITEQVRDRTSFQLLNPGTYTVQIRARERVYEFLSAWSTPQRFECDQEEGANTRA

B1: DARPin® protein #8 (in TCE format) (designed binder, not shown: small tags and cut ends)
chain: MRGSHHHHHHGSDLGKKLLNAAHIGQDDEVRILLAAGADVNAKDIVGKTPLHIAAWLGHLEIVEVLLKAGADVNAKDDHGWTPLHIAAHVGHLEIVEVLLKAGADVNAQDNAGNTPADLVAFQGHEDIAEVLQKAA
B2: DARPin® protein #3 (in TCE format) (designed binder, not shown: small tags and cut ends)
chain: MRGSHHHHHHGSDLGKKLLQAARAGQLDEVRELLKAGADVNAKDQYGRTPLHLAAIKGHLEIVEVLLKAGADVNAKDSLGYTPLHLAAVEGPLEIVEVLLKAGADVNAKDAYGQTPLHIAAAWGHLEIVEVLLKAVADVNAQDKSGKTPADLAARAGHQDIAEVLQKAA
B3: DARPin® protein #5 (in TCE format) (designed binder, not shown: small tags and cut ends)
chain: MRGSHHHHHHGSDLGKKLLKAALLGQDDEVRELLKAGADVNAKDRFGYTPLHLAAWTGHLEIVEVLLKAGADVNAKDAYGWTPLHIAAHSGHLEIVEVLLKAGADVNAQDLEGETPADLAAAQGHEDIAEVLQKAA
B4: DARPin® protein #9 (in TCE format) (designed binder, not shown: small tags and cut ends)
chain: MRGSHHHHHHGSDLGWKLLDAAEIGQDDEVRILLAAGADVNAKDKQGITPLHIAAAHGHLEIVEVLLKAGADVNAKDEIGRTPLHLAAFKGHLEIVEVLLKAGADVNAQDIIGETPADLAAVRGHEDIAEVLQKAA
B5: DARPin® protein #4 (in TCE format) (designed binder, not shown: small tags and cut ends)
chain: MRGSHHHHHHGSDLGKKLLQAARAGQLDEVRELLKAGADVNAKDEYGATPLHLAAYSGHLEIVEVLLKAGADVNAKDEWGRTPLHVAALSGHLEIVEVLLKAGADVNAKDHQGRTPLHLAALWGHLEIVEVLLKAVADVNAQDKSGKTPADLAARAGHQDIAEVLQKAA
B6: DARPin® protein #1 (in TCE format) (designed binder, not shown: small tags and cut ends)
chain: MRGSHHHHHHGSDLGKKLLEAALEGQDDEVRELLKAGADVNAKDQEGYTPLHLAAALGHLEIVEVLLKAGADVNAKDSIGRTPLHLAAYKGHLEIVEVLLKAGADVNAQDLLGETPADLAAEQGHEDIAEVLQKAA
B7: DARPin® protein #6 (in TCE format) (designed binder, not shown: small tags and cut ends)
chain: MRGSHHHHHHGSDLGEKLLEAALEGQDDEVRELLKAGADVNAKDQEGYTPLHLAAALGHLEIVEVLLKAGADVNAKDSIDRTPLHLAAYKGHLEIVEVLLKAGADVNAQDAAGQTPADLAAALGHEDIAEVLQKAA
B8: DARPin® protein #7 (in TCE format) (designed binder, not shown: small tags and cut ends)
chain: MRGSHHHHHHGSDLGKKLLQAARAGQLDEVRELLKAGADVNAKDEYGLTPLHLAAEFGHLEIVEVLLKAGADVNAKDANGHTPLHLAAAYDHLEIVEVLLKAGADVNAKDTSGKTPLHLAAQYGHLEIVEVLLKAGADVNAQDKSGKTPADLAARAGHQDIAEVLQKAA

This experiment addresses T1, biotinylated extracellular domains of …. Put plainly: SPR (ProteOn XPR36), bio.hCD123 immobilised on NLC chip, DARPin in TCE format injected at 50 nM, single trace. On the procedure: SPR measurements were performed using a ProteOn XPR36 instrument (BioRad). The running buffer was PBS pH 7.4 containing 0.005% Tween 20® (PBST). The bio.hCD123 target was immobilized on a NLC chips (BioRad) to a level of 600 RU. The interactions of the 96well purified CD123-specific ankyrin repeat proteins in TCE format to bio. hCD123 were measured by injecting the DARPin® molecules at 50 nM with an association of 120 s and dissociation of 1200 s using a constant flow of 100 μl/min. Some DARPin proteins were reinjected using a dissociation of 600 s. The target was regenerated between the individual measurements using 10 mM Glycine pH2.5. The signals were double referenced against the running buffer (PBST) treated control lane of L1 and A6.
Dissociation constants (KD) were calculated from the estimated on- and off-rates using standard procedures known to the person skilled in the art. KD values were determined by single trace SPR. The values in Table 2a are averages of multiple replicates.
The Kd is a measure of binding affinity in units of concentration. In turn, B1 showed a dissociation constant Kd of 1 nM.

With B2, the Kd came out at 0.52 nM.

On to B3, for which binding was characterised by a dissociation constant (Kd) of 8.5 nM.

B4 displayed a dissociation constant (Kd) of 2.1 nM.

With B5, the dissociation constant (Kd) came out at 45 nM.

Consider B6, for which the dissociation constant Kd came out at 12 nM.

B7 had a Kd of 4.5 nM.

For the molecule B8, the dissociation constant Kd is 0.93 nM.

Source of the values: patent publication US20240150475A1 (Molecular Partners, published 2024).
